Results on one molecule are retold here after paper PMC11711466, “Reconstitution of human DNA licensing and the structural and functional analysis of key intermediates” (Nature Communications, 2024).

The target in this assay is T1, human origin recognition complex hORC1-5 (human, UniProt Q13415 1-861; Q13416 1-577; Q9UBD5 1-711; O43929 1-436; O43913 1-435).
T1 construct: human origin recognition complex subunit 1 (hORC1); human origin recognition complex subunit 2 (hORC2); human origin recognition complex subunit 3 (hORC3); human origin recognition complex subunit 4 (hORC4); human origin recognition complex subunit 5 (hORC5); The Strep tag on hORC1 was kept for the pull-down; also called Strep-hORC1-5; hORC1-5WT; source: S. cerevisiae YC658, galactose-induced, …
Briefly: cryo-EM structure; hOCCM from a low-salt washed pre-RC reaction with ATPγS, eluted from the DNA beads with DNaseI; 6.09 Å. As to conditions: both partners purified.

B1: human MCM5 (natural protein, UniProt P33992 1-734, looked up)
chain: MSGFDDPGIFYSDSFGGDAQADEGQARKSQLQRRFKEFLRQYRVGTDRTGFTFKYRDELKRHYNLGEYWIEVEMEDLASFDEDLADYLYKQPAEHLQLLEEAAKEVADEVTRPRPSGEEVLQDIQVMLKSDASPSSIRSLKSDMMSHLVKIPGIIIAASAVRAKATRISIQCRSCRNTLTNIAMRPGLEGYALPRKCNTDQAGRPKCPLDPYFIMPDKCKCVDFQTLKLQELPDAVPHGEMPRHMQLYCDRYLCDKVVPGNRVTIMGIYSIKKFGLTTSRGRDRVGVGIRSSYIRVLGIQVDTDGSGRSFAGAVSPQEEEEFRRLAALPNVYEVISKSIAPSIFGGTDMKKAIACLLFGGSRKRLPDGLTRRGDINLLMLGDPGTAKSQLLKFVEKCSPIGVYTSGKGSSAAGLTASVMRDPSSRNFIMEGGAMVLADGGVVCIDEFDKMREDDRVAIHEAMEQQTISIAKAGITTTLNSRCSVLAAANSVFGRWDETKGEDNIDFMPTILSRFDMIFIVKDEHNEERDVMLAKHVITLHVSALTQTQAVEGEIDLAKLKKFIAYCRVKCGPRLSAEAAEKLKNRYIIMRSGARQHERDSDRRSSIPITVRQLEAIVRIAEALSKMKLQPFATEADVEEALRLFQVSTLDAALSGTLSGVEGFTSQEDQEMLSRIEKQLKRRFAIGSQVSEHSIIKDFTKQKYPEHAIHKVLQLMLRRGEIQHRMQRKVLYRLK
notes: Subunit of m6; also called hMCM5; source: HEK293-F, co-expressed hMCM2-7; in lysate (co-purification) and purified as hMCM2-7 (Ni-NTA, StrepTrapXT)
B1: the binding result was “binds”.
